Measured values: US20160176924A1, “MODIFIED PEPTIDES AS POTENT INHIBITORS OF THE PSD-95/NMDA RECEPTOR INTERACTION” (priority 2008, published 2016)
Values belong to the substance of their own block, whether it stands above or below them.

Tests used:
Assay in all cases: FP competition, fluorescent NR2B probe
[1] = biological target: HIS-PDZ1 protein (PSD-95 PDZ1, residues 61-151, with tag …) (human) (UniProt P78352)
[2] = biological target: HIS-PDZ2 protein (PSD-95 PDZ2, residues 155-249, with tag …) (human) (UniProt P78352)
[3] = biological target: HIS-PDZ1-2 protein (PSD-95 PDZ1-2 tandem, residues 61-249, with tag …) (human) (UniProt P78352)

fold impairment of affinity relative to peptide 1 [1]: > 25 fold | fold impairment of affinity relative to peptide 1 [2]: > 25 fold
Substance: ESDV (8) with D-Glu instead of L-Glu (peptide)

fold increase in Ki compared to peptide 1 [1]: > 20 fold | fold increase in Ki compared to peptide 1 [2]: > 30 fold
Substance: SDV (9) (peptide)

Ki [1]: 42 µM | Ki [2]: 37 µM
Substance: TAV (49) (peptide)

Substance: Tat-NR2B (3) (peptide)
Ki [1]: 14 µM | Ki [3]: 9.8 µM | Ki [2]: 4.4 µM
